Source: PMC7244744, “Vesicular transport mediates the uptake of cytoplasmic proteins into mitochondria in Drosophila melanogaster” (Nature Communications, 2020)

Biological target: the molecule itself
Assay: SDS-PAGE and western blot with and without DTT; flight-muscle tissue homogenates of wild-type flies, mitochondrial fraction; monomer band and upper band (Dosmit*); analysed in the presence and absence of DTT

B1: Dosmit (downsizing mitochondria), endogenous in fly flight muscle (natural protein, UniProt Q9VAM6 1-133, looked up)
chain: MEPISHLVKSSLPNYLSSLPVPDSIGGWFKLSFKDWLALIPPTVVVAGLGYTAYLAYCPAARASCAAKNSGRCNNHIRKNEPKVVDMIDVEDIAEKAAFCRCWKTKNWPYCDGSHGEHNKQTGDNVGPIVIKK
notes: endogenous protein of flight muscle; Seen as monomer and dimer (Dosmit*) bands on western blots; the dimer band is reduced to the monomer by DTT; also called Dosmit* (dimer form); CG1458; source: endogenous, flight-muscle tissue homogenate of wild-type flies (mitochondrial fraction)
stoichiometry N: 2
